These results are taken from article doi:10.1101/2021.12.21.473721 (bioRxiv, 2021).

The series concerns the molecule itself. Kind of series: SEC. In general terms: Size exclusion chromatography separates by hydrodynamic size, large species first.

B1: bacteriophage MS2 coat protein, wildtype (MS2[WT]) (natural protein)
chain: ASNFTQFVLVDNGGTGDVTVAPSNFANGVAEWISSNSRSQAYKVTCSVRQSSAQNRKYTIKVEVPKVATQTVGGVELPVAAWRSYLNMELTIPIFATNSDCELIVKAMQGLLKDGNPIPSAIAANSGIY
On to B1, for which the binding result was “binds”.
